IntAct's records for PubMed 12629052

Molecular target: fkb1a_human FKBP1A (UniProt P62942)
Sequence (P62942 whole entry): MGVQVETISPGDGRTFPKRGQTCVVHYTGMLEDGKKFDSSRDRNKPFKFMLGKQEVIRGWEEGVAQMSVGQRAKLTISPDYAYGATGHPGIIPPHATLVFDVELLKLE

effect of a mutation on the interaction: disrupting interaction
Substance: Ryanodine receptor 1 (Oryctolagus cuniculus (Rabbit)), P11716 S2843D
